Data on 14 variants can be found in the supplement of paper PMC11811203.

The chains are these.
B1: THAP1; numbered along this chain (parent)
chain: MVQSCSAYGCKNRYDKDKPVSFHKFPLTRPSLCKEWEAAVRRKNFKPTKYSSICSEHFTPDCFKRECNNKLLKENAVPTIFLCTEPHDKKEDLLEPQEQLPPPPLPPPVSQVDAAIGLLMPPLQTPVNLSVFCDHNYTVEDTMHQRKRIHQLEQQVEKLRKKLKTAQQRCRRQERQLEKLKEVVHFQKEKDDVSERGYVILPNDYFEIVEVPA

This data set covers variants of B1. In words: THAP1 transcriptional activity (GFP+/GFP- enrichment relative to wild-type constructs) (ratio to WT); higher = more THAP1 activity (PSMB5 reporter activation). The following applies: with PSMB5 promoter-GFP reporter. In outline: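 Variants were counted by Illumina sequencing of genomic DNA amplicons from BFP+ cells sorted into GFP-bright and GFP-dim bins five days after lentiviral transduction, in duplicate at MOI ~0.3. The library changed each of residues 2–213 of human THAP1 to all 20 amino acids and was introduced into THAP1-knockout HEK-293T cells with mClover3 knocked in at endogenous PSMB5. Activity equals the replicate-mean bright/dim read fold change over the mean of wild-type synonymous constructs.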
Consider MVQSCSAYGCKNRYDKDKPVSFHKFPLTRPSLCKEWEAAVRRKNFKPTKYSSICSEHFTPDCFKRECNNKLLKENAVPTIFLCTEPHDKKEDLLEPQEQLPPPPLPPPVSQVDAAIGLLMPPKQTPVNLSVFCDHNYTVEDTMHQRKRIHQLEQQVEKLRKKLKTAQQRCRRQERQLEKLKEVVHFQKEKDDVSERGYVILPNDYFEIVEVPA [L123K], for which the THAP1 transcriptional activity was 0.809.
To MVQSCSAYGCKNRYDKDKPVSFHKFPLTRPSLCKEWEAAVRRKNFKPTKYSSICSEHFTPDCFKRECNNKLLKENAVPTIFLCTEPHDKKEDLLEPQEQLPPPPLPPPVSQVDAAIGLLMPPYQTPVNLSVFCDHNYTVEDTMHQRKRIHQLEQQVEKLRKKLKTAQQRCRRQERQLEKLKEVVHFQKEKDDVSERGYVILPNDYFEIVEVPA [L123Y] belongs 0.693; to MVQSCSAYGCKNRYDKDKPVSFHKFPLTRPSLCKEWEAAVRRKNFKPTKYSSICSEHFTPDCFKRECNNKLLKENAVPTIFLCTEPHDKKEDLLEPQEQLPPPPLPPPVSQVDAAIGLLMPPVQTPVNLSVFCDHNYTVEDTMHQRKRIHQLEQQVEKLRKKLKTAQQRCRRQERQLEKLKEVVHFQKEKDDVSERGYVILPNDYFEIVEVPA [L123V], 1.01.
With MVQSCSAYGCKNRYDKDKPVSFHKFPLTRPSLCKEWEAAVRRKNFKPTKYSSICSEHFTPDCFKRECNNKLLKENAVPTIFLCTEPHDKKEDLLEPQEQLPPPPLPPPVSQVDAAIGLLMPPLHTPVNLSVFCDHNYTVEDTMHQRKRIHQLEQQVEKLRKKLKTAQQRCRRQERQLEKLKEVVHFQKEKDDVSERGYVILPNDYFEIVEVPA [Q124H], the THAP1 transcriptional activity was found to be 0.399.
Then MVQSCSAYGCKNRYDKDKPVSFHKFPLTRPSLCKEWEAAVRRKNFKPTKYSSICSEHFTPDCFKRECNNKLLKENAVPTIFLCTEPHDKKEDLLEPQEQLPPPPLPPPVSQVDAAIGLLMPPLGTPVNLSVFCDHNYTVEDTMHQRKRIHQLEQQVEKLRKKLKTAQQRCRRQERQLEKLKEVVHFQKEKDDVSERGYVILPNDYFEIVEVPA [Q124G], with 0.787; and MVQSCSAYGCKNRYDKDKPVSFHKFPLTRPSLCKEWEAAVRRKNFKPTKYSSICSEHFTPDCFKRECNNKLLKENAVPTIFLCTEPHDKKEDLLEPQEQLPPPPLPPPVSQVDAAIGLLMPPLFTPVNLSVFCDHNYTVEDTMHQRKRIHQLEQQVEKLRKKLKTAQQRCRRQERQLEKLKEVVHFQKEKDDVSERGYVILPNDYFEIVEVPA [Q124F], with 0.463.
MVQSCSAYGCKNRYDKDKPVSFHKFPLTRPSLCKEWEAAVRRKNFKPTKYSSICSEHFTPDCFKRECNNKLLKENAVPTIFLCTEPHDKKEDLLEPQEQLPPPPLPPPVSQVDAAIGLLMPPLDTPVNLSVFCDHNYTVEDTMHQRKRIHQLEQQVEKLRKKLKTAQQRCRRQERQLEKLKEVVHFQKEKDDVSERGYVILPNDYFEIVEVPA [Q124D]: the THAP1 transcriptional activity stood at 0.637.
For the variant MVQSCSAYGCKNRYDKDKPVSFHKFPLTRPSLCKEWEAAVRRKNFKPTKYSSICSEHFTPDCFKRECNNKLLKENAVPTIFLCTEPHDKKEDLLEPQEQLPPPPLPPPVSQVDAAIGLLMPPLATPVNLSVFCDHNYTVEDTMHQRKRIHQLEQQVEKLRKKLKTAQQRCRRQERQLEKLKEVVHFQKEKDDVSERGYVILPNDYFEIVEVPA [Q124A], the THAP1 transcriptional activity came to 0.569.
Then MVQSCSAYGCKNRYDKDKPVSFHKFPLTRPSLCKEWEAAVRRKNFKPTKYSSICSEHFTPDCFKRECNNKLLKENAVPTIFLCTEPHDKKEDLLEPQEQLPPPPLPPPVSQVDAAIGLLMPPLKTPVNLSVFCDHNYTVEDTMHQRKRIHQLEQQVEKLRKKLKTAQQRCRRQERQLEKLKEVVHFQKEKDDVSERGYVILPNDYFEIVEVPA [Q124K], with 0.879.
Then MVQSCSAYGCKNRYDKDKPVSFHKFPLTRPSLCKEWEAAVRRKNFKPTKYSSICSEHFTPDCFKRECNNKLLKENAVPTIFLCTEPHDKKEDLLEPQEQLPPPPLPPPVSQVDAAIGLLMPPLETPVNLSVFCDHNYTVEDTMHQRKRIHQLEQQVEKLRKKLKTAQQRCRRQERQLEKLKEVVHFQKEKDDVSERGYVILPNDYFEIVEVPA [Q124E], with 0.458.
To MVQSCSAYGCKNRYDKDKPVSFHKFPLTRPSLCKEWEAAVRRKNFKPTKYSSICSEHFTPDCFKRECNNKLLKENAVPTIFLCTEPHDKKEDLLEPQEQLPPPPLPPPVSQVDAAIGLLMPPLITPVNLSVFCDHNYTVEDTMHQRKRIHQLEQQVEKLRKKLKTAQQRCRRQERQLEKLKEVVHFQKEKDDVSERGYVILPNDYFEIVEVPA [Q124I] belongs 0.516; to MVQSCSAYGCKNRYDKDKPVSFHKFPLTRPSLCKEWEAAVRRKNFKPTKYSSICSEHFTPDCFKRECNNKLLKENAVPTIFLCTEPHDKKEDLLEPQEQLPPPPLPPPVSQVDAAIGLLMPPLMTPVNLSVFCDHNYTVEDTMHQRKRIHQLEQQVEKLRKKLKTAQQRCRRQERQLEKLKEVVHFQKEKDDVSERGYVILPNDYFEIVEVPA [Q124M], 0.487; to MVQSCSAYGCKNRYDKDKPVSFHKFPLTRPSLCKEWEAAVRRKNFKPTKYSSICSEHFTPDCFKRECNNKLLKENAVPTIFLCTEPHDKKEDLLEPQEQLPPPPLPPPVSQVDAAIGLLMPPLCTPVNLSVFCDHNYTVEDTMHQRKRIHQLEQQVEKLRKKLKTAQQRCRRQERQLEKLKEVVHFQKEKDDVSERGYVILPNDYFEIVEVPA [Q124C], 0.587.
Consider MVQSCSAYGCKNRYDKDKPVSFHKFPLTRPSLCKEWEAAVRRKNFKPTKYSSICSEHFTPDCFKRECNNKLLKENAVPTIFLCTEPHDKKEDLLEPQEQLPPPPLPPPVSQVDAAIGLLMPPLLTPVNLSVFCDHNYTVEDTMHQRKRIHQLEQQVEKLRKKLKTAQQRCRRQERQLEKLKEVVHFQKEKDDVSERGYVILPNDYFEIVEVPA [Q124L], for which the THAP1 transcriptional activity is 0.212.
